Five molecules from patent US20260049113A1 can be followed below.

Sequences and labels used below:
T1: Full length human midkine protein (human) (UniProt P21741)
T1 sequence: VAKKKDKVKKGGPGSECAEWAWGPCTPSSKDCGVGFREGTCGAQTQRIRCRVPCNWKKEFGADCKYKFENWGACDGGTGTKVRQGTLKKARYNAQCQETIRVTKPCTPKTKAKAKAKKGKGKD

B1: Δ14 MDK (truncated human midkine lacking 14 amino acids from the C-terminus) (ligand)
chain: VAKKKDKVKKGGPGSECAEWAWGPCTPSSKDCGVGFREGTCGAQTQRIRCRVPCNWKKEFGADCKYKFENWGACDGGTGTKVRQGTLKKARYNAQCQETIRVTKPCTPK
B2: Δ58 MDK (truncated human midkine lacking 58 amino acids from the C-terminus) (ligand)
chain: VAKKKDKVKKGGPGSECAEWAWGPCTPSSKDCGVGFREGTCGAQTQRIRCRVPCNWKKEFGADCK
B3: Δ41 MDK (truncated human midkine lacking 41 amino acids from the C-terminus) (ligand)
chain: VAKKKDKVKKGGPGSECAEWAWGPCTPSSKDCGVGFREGTCGAQTQRIRCRVPCNWKKEFGADCKYKFENWGACDGGTGTKV
B4: Δ25 MDK (truncated human midkine lacking 25 amino acids from the C-terminus) (ligand)
chain: VAKKKDKVKKGGPGSECAEWAWGPCTPSSKDCGVGFREGTCGAQTQRIRCRVPCNWKKEFGADCKYKFENWGACDGGTGTKVRQGTLKKARYNAQCQE
B5: Δ34 MDK (truncated human midkine lacking 34 amino acids from the C-terminus) (ligand)
chain: VAKKKDKVKKGGPGSECAEWAWGPCTPSSKDCGVGFREGTCGAQTQRIRCRVPCNWKKEFGADCKYKFENWGACDGGTGTKVRQGTLKK

The target of the assay is T1, Full length human midkine protein (human). Description: cell-based or functional assay.
B1: the Total Area (area under the curve of wound width, Cell Migration Assay) was determined as 1710.
With B2 the figure was 1990; with B3, 924.
The molecule B4 yielded a Total Area (area under the curve of wound width, Cell Migration Assay) of 1040.
B5 gave a Total Area (area under the curve of wound width, Cell Migration Assay) of 768.
